Target: PTH receptor on MC3T3-EI cells (mouse cranial bone-derived osteoblast-like cell strain) (mouse) (UniProt P41593)

| cAMP production in MC3T3-EI cells, relative activity to hPTH(1-34) (relative activity to hPTH(1-34)) | Substance |
| --- | --- |
| 1.1 | (Lys^11)hPTH(1-34)NH2 (from UniProt P01270) (peptide) |
| 0.4 | (Leu^18)hPTH(1-34) (from UniProt P01270) (peptide) |

Reference: patent US5393869A, “Parathyroid hormone derivatives” (Takeda Chemical Industries, Ltd., priority 1990, dated 1995)
